Data on four proteins can be found in US7083786.

The data set addresses T1, human complement factor C4, P0C0L4.
T1 chain: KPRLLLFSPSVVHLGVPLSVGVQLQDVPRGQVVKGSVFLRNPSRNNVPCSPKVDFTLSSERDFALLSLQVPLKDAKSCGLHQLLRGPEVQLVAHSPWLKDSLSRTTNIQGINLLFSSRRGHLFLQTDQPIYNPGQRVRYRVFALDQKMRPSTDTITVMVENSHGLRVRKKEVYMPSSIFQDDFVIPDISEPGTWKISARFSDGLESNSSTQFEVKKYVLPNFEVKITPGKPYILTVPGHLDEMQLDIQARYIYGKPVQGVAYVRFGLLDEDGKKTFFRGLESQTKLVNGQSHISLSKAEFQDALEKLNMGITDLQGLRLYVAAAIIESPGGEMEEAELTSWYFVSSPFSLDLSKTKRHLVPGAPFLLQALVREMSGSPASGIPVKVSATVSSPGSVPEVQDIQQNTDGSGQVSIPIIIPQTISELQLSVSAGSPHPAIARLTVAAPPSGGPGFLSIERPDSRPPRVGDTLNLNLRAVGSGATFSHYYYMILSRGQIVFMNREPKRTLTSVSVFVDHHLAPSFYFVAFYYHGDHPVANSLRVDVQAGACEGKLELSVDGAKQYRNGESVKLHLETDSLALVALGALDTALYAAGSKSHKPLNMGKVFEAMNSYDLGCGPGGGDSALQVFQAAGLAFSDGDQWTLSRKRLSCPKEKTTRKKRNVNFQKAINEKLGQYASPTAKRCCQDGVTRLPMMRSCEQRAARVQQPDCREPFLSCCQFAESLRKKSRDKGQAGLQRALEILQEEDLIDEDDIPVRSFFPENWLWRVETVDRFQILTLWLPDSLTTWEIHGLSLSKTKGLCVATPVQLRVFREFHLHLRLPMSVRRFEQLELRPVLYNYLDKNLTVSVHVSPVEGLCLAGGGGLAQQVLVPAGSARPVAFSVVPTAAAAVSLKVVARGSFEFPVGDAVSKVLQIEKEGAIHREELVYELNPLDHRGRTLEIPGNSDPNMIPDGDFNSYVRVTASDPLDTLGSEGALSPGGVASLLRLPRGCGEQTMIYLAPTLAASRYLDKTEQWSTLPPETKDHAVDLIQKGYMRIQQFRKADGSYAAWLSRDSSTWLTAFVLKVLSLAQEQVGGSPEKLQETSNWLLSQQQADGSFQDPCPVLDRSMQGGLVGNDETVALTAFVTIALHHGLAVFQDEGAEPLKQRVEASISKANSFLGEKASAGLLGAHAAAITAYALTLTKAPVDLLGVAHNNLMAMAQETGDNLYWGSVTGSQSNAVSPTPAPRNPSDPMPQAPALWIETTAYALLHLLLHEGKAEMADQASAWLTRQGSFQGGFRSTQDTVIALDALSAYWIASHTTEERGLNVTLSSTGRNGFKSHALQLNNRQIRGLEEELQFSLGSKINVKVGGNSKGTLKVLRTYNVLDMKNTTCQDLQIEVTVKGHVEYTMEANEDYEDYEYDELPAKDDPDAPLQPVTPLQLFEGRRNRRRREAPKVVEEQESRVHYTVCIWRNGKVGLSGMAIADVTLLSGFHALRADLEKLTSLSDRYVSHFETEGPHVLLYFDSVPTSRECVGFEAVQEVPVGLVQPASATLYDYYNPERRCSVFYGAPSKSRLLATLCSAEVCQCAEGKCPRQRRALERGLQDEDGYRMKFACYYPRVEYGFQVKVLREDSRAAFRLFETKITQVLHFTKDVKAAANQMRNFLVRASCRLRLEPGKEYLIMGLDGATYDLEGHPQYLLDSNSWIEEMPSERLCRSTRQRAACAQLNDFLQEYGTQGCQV

B1: C1s from human serum C1 (protein)
chain: EPTMYGEILSPNYPQAYPSEVEKSWDIEVPEGYGIHLYFTHLDIELSENCAYDSVQIISGDTEEGRLCGQRSSNNPHSPIVEEFQVPYNKLQVIFKSDFSNEERFTGFAAYYVATDINECTDFVDVPCSHFCNNFIGGYFCSCPPEYFLHDDMKNCGVNCSGDVFTALIGEIASPNYPKPYPENSRCEYQIRLEKGFQVVVTLRREDFDVEAADSAGNCLDSLVFVAGDRQFGPYCGHGFPGPLNIETKSNALDIIFQTDLTGQKKGWKLRYHGDPMPCPKEDTPNSVWEPAKAKYVFRDVVQITCLDGFEVVEGRVGATSFYSTCQSNGKWSNSKLKCQPVDCGIPESIENGKVEDPESTLFGSVIRYTCEEPYYYMENGGGGEYHCAGNGSWVNEVLGPELPKCVPVCGVPREPFEEKQRIIGGSDADIKNFPWQVFFDNPWAGGALINEYWVLTAAHVVEGNREPTMYVGSTSVQTSRLAKSKMLTPEHVFIHPGWKLLEVPEGRTNFDNDIALVRLKDPVKMGPTVSPICLPGTSSDYNLMDGDLGLISGWGRTEKRDRAVRLKAARLPVAPLRKCKEVKVEKPTADAEAYVFTPNMICAGGEKGMDSCKGDSGGAFAVQDPNDKTKFYAAGLVSWGPQCGTYGLYTRVKNYVDWIMKTMQENSTPRED
Take B1: the “C4 deposition on a Western blot incubated with human serum (C4 activation)” value (“C4 deposition” for short) was “C4 deposition, which could be inhibited by enzyme inhibitors, was observed at a position corresponding to C1r and C1s, which are not separated by the technique employed”.

B2: MASP-1 (MBP-associated serine protease) from human plasma (protein)
chain: HTVELNNMFGQIQSPGYPDSYPSDSEVTWNITVPDGFRIKLYFMHFNLESSYLCEYDYVKVETEDQVLATFCGRETTDTEQTPGQEVVLSPGSFMSITFRSDFSNEERFTGFDAHYMAVDVDECKEREDEELSCDHYCHNYIGGYYCSCRFGYILHTDNRTCRVECSDNLFTQRTGVITSPDFPNPYPKSSECLYTIELEEGFMVNLQFEDIFDIEDHPEVPCPYDYIKIKVGPKVLGPFCGEKAPEPISTQSHSVLILFHSDNSGENRGWRLSYRAAGNEPELQPPVHGKIEPSQAKYFFKDQVLVSCDTGYKVLKDNVEMDTFQIECLKDGTWSNKIPTCKIVDCRAPGELEHGLITFSTRNNLTTYKSEIKYSCQEPYYKMLNNNTGIYTCSAQGVWMNKVLGRSLPTCLPVCGLPKFSRKLMARIFNGRPAQKGTTPWIAMLSHLNGQPFCGGSLLGSSWIVTAAHCLHQSLDPKDPTLRDSDLLSPSDFKIILGKHWRLRSDENEQHLGVKHTTLHPKYDPNTFENDVALVELLESPVLNAFVMPICLPEGPQQEGAMVIVSGWGKQFLQRFPETLMEIEIPIVDHSTCQKAYAPLKKKVTRDMICAGEKEGGKDACSGDSGGPMVTLNRERGQWYLVGTVSWGDDCGKKDRYGVYSYIHHNKDWIQRVTGVRN
For B2, the “C4 deposition” value is “no C4 deposition was observed at positions corresponding to MASP-1”.

B3: C1r from human serum C1 (protein)
chain: SIPIPQKLFGEVTSPLFPKPYPNNFETTTVITVPTGYRVKLVFQQFDLEPSEGCFYDYVKISADKKSLGRFCGQLGSPLGNPPGKKEFMSQGNKMLLTFHTDFSNEENGTIMFYKGFLAYYQAVDLDECASRSKSGEEDPQPQCQHLCHNYVGGYFCSCRPGYELQEDRHSCQAECSSELYTEASGYISSLEYPRSYPPDLRCNYSIRVERGLTLHLKFLEPFDIDDHQQVHCPYDQLQIYANGKNIGEFCGKQRPPDLDTSSNAVDLLFFTDESGDSRGWKLRYTTEIIKCPQPKTLDEFTIIQNLQPQYQFRDYFIATCKQGYQLIEGNQVLHSFTAVCQDDGTWHRAMPRCKIKDCGQPRNLPNGDFRYTTTMGVNTYKARIQYYCHEPYYKMQTRAGSRESEQGVYTCTAQGIWKNEQKGEKIPRCLPVCGKPVNPVEQRQRIIGGQKAKMGNFPWQVFTNIHGRGGGALLGDRWILTAAHTLYPKEHEAQSNASLDVFLGHTNVEELMKLGNHPIRRVSVHPDYRQDESYNFEGDIALLELENSVTLGPNLLPICLPDNDTFYDLGLMGYVSGFGVMEEKIAHDLRFVRLPVANPQACENWLRGKNRMDVFSQNMFCAGHPSLKQDACQGDSGGVFAVRDPNTDRWVATGIVSWGIGCSRGYGFYTKVLNYVDWIKKEMEEED
As for B3, the “C4 deposition” value was “C4 deposition, which could be inhibited by enzyme inhibitors, was observed at a position corresponding to C1r and C1s, which are not separated by the technique employed”.

B4: mannan-binding lectin associated serine protease-2 (MASP-2), 76 kDa protein from human plasma (protein)
chain: TPLGPKWPEPVFGRLASPGFPGEYANDQERRWTLTAPPGYRLRLYFTHFDLELSHLCEYDFVKLSSGAKVLATLCGQESTDTERAPGKDTFYSLGSSLDITFRSDYSNEKPFTGFEAFYAAEDIDECQVAPGEAPTCDHHCHNHLGGFYCSCRAGYVLHRNKRTCSALCSGQVFTQRSGELSSPEYPRPYPKLSSCTYSISLEEGFSVILDFVESFDVETHPETLCPYDFLKIQTDREEHGPFCGKTLPHRIETKSNTVTITFVTDESGDHTGWKIHYTSTAQPCPYPMAPPNGHVSPVQAKYILKDSFSIFCETGYELLQGHLPLKSFTAVCQKDGSWDRPMPACSIVDCGPPDDLPSGRVEYITGPGVTTYKAVIQYSCEETFYTMKVNDGKYVCEADGFWTSSKGEKSLPVCEPVCGLSARTTGGRIYGGQKAKPGDFPWQVLILGGTTAAGALLYDNWVLTAAHAVYEQKHDASALDIRMGTLKRLSPHYTQAWSEAVFIHEGYTHDAGFDNDIALIKLNNKVVINSNITPICLPRKEAESFMRTDDIGTASGWGLTQRGFLARNLMYVDIPIVDHQKCTAAYEKPPYPRGSVTANMLCAGLESGGKDSCRGDSGGALVFLDSETERWFVGGIVSWGSMNCGEAGQYGVYTKVINYIPWIENIISDF
Consider B4, for which the “C4 deposition” value is given as “C4 was deposited at a position corresponding to the MASP-2 band”.
